# Experimental data as given in US20170088602A1 (Bristol-Myers Squibb, published 2017).
# Substitutions are numbered along the chain they refer to. Names may count otherwise. Like-named read-outs stand apart in the source and are kept apart here.
# B1: 3116_A06 G30A (designed binder)
# chain: MGVSDVPRDLEVVAATPTSLLISWSLPHQAKANYYRITYGETGGNSPVQEFTVPGRGVTATISGLKPGVDYTITVYAVTVTDTGYLKYKPISINYRTEIDKPSQHHHHHH
# B2: 3116_A06 V80A (designed binder)
# chain: B1 chain with A30G, V80A
# B3: 3116_A06 T81A (designed binder)
# chain: B1 chain with A30G, T81A
# B4: 3116_A06 Y88A (designed binder)
# chain: B1 chain with A30G, Y88A
# B5: ALK5-Fc (R&D Systems) (Fc fusion, UniProt P36897 34-125, looked up, not shown: a dimerising Fc or GST)
# chain: LQCFCHLCTKDNFTCVTDGLCFVSVTETTDKVIHNSMCIAEIDLIPRDRPFVCAPSSKTGSVTTTYCCNQDHCNKIELPTTVKSSPGLGPVE
# B6: 2525_D05 (designed binder)
# chain: MGVSDVPRDLEVVAATPTSLLISWSLPYAGHLNYYRITYGETGGNSPVQEFTVPGRGVTATISGLKPGVDYTITVYAVTLTKSQLIHYMPISINYRTEIDKPSQHHHHHH
# B7: 2062_G02 (designed binder)
# chain: MGVSDVPRDLEVVAATPTSLLISWVSPRGRARYYRITYGETGGNSPVQEFTVPGRGSTATISGLKPGVDYTITVYAVTIYRDGMSHHDPISINYRTEIDKPSQHHHHHH
# notes: also called ATI-1134
# B8: 2523_G06 (designed binder)
# chain: B7 chain with V25W, S26A, R28L, R30L, Y80F, D82T, S85V, H86Q, H87Y
# B9: ATI-1107 [40K 2-branch PEG] (designed binder)
# chain: MGVSDVPRDLEVVAATPTSLLISWSLPHAGHVNYYRITYGETGGNSPVQEFTVPGRGVTATISGLKPGVDYTITVYAVTLTKSQMIHYMPISINYRTGSGCHHHHHH
# modifications: 40K 2-branch PEG on the Cys of the GSGC tail
# notes: cysteine mutant of 1979_B06
# B10: ALK4-Fc (R&D Systems) (Fc fusion, UniProt P36896 24-126, looked up, not shown: a dimerising Fc or GST)
# chain: SGPRGVQALLCACTSCLQANYTCETDGACMVSIFNLDGMEHHVRTCIPKVELVPAGKPFYCLSSEDLRNTHCCYTDYCNRIDLRVPSGHLKEPEHPSMWGPVE
# notes: also called activin receptor-like kinase 4 Fc
# B11: ActRIIB-Fc (produced in house) (Fc fusion, UniProt Q13705 19-134, looked up, not shown: a dimerising Fc or GST)
# chain: SGRGEAETRECIYYNANWELERTNQSGLERCEGEQDKRLHCYASWRNSSGTIELVKKGCWLDDFNCYDRQECVATEENPQVYFCCCEGNFCNERFTHLPEAGGPEVTYEPPPTAPT
# B12: ActRIIB-monomer (produced in house) (receptor, UniProt Q13705 19-134, looked up)
# chain: B11 chain
# B13: ATI-1276 [40K 2-branch PEG] (designed binder)
# chain: MGVSDVPRDLEVVAATPTSLLISWYLPYPAHMNYYRITYGETGGNSPVQEFTVPGRGLTATISGLKPGVDYTITVYAVTLTKSQILHHRPISINYRTEGSGCHHHHHH
# modifications: 40K 2-branch PEG on the Cys of the EGSGC tail
# notes: cysteine mutant of 2524_D09
# B14: ATI-1278 [40K 2-branch PEG] (designed binder)
# chain: B13 chain with Y25S, P29A, A30G, M32L, L58V, I85L, L86I, H88Y, R89M
# modifications: 40K 2-branch PEG on the Cys of the EGSGC tail
# notes: cysteine mutant of 2525_D05
# Legend:
# [1] = target: T1, human myostatin (mature, recombinant; R&D Systems) (human, UniProt O14793 267-375); assay: competitive HTRF, alanine scan
# T1 construct: biotinylated in the mRNA display selection; also called GDF-8; mature myostatin
# T1 sequence: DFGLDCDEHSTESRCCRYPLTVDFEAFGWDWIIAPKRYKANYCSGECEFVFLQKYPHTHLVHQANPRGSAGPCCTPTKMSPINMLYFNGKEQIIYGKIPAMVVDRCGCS
# [2] = target: T1, human myostatin (mature, recombinant; …); assay: cell-based or functional assay
# [3] = target: T1, human myostatin (mature, recombinant; …); assay: HTRF competition binding assay, alanine mutant against 3116_A06
# [4] = target: T1, human myostatin (mature, recombinant; …); assay: cell-based or functional assay; remark: listed apart in the source
# [5] = target: T2, human BMP-11 (GDF-11; R&D Systems) (human, UniProt O95390 299-407); assay: SPR Format B; immobilized BMP11 with pre-bound PRD-1474 as competitor
# T2 sequence (looked up): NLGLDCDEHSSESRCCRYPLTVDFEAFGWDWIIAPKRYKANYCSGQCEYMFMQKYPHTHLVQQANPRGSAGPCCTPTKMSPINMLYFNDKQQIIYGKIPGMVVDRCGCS
# Method: (§1) Adnectin competition using “SPR format B”: The mechanism of action for anti-myostatin Adnectins was further evaluated in “SPR Format B”, where myostatin or BMP11 (10 μg/ml in 10 mM acetate pH 4.5) were directly immobilized on a CM5 sensor chip surface using EDC/NHS coupling chemistry to a density of 985 RU (myostatin) or 530 RU (BMP11). […] The running buffer for immobilization and competition experiments was 10 mM HEPES, 150 mM NaCl, 3 mM EDTA, and 0.05% v/v Surfactant P20, pH 7.4, and surfaces were regenerated between cycles using 4 injections of 50 mM NaOH for 15 s at 30 μl/min.
# [6] = target: T2, human BMP-11 (GDF-11; R&D Systems); assay: SPR Format B; immobilized BMP11, no pre-bound PRD-1474
# Method: as §1
# [7] = target: T2, human BMP-11 (GDF-11; R&D Systems); assay: SPR Format A; 100 nM BMP11 with 200 nM ATI-1523 as competitor
# Method: (§2) Competition SPR: Competitive binding assays to evaluate the ability of anti-myostatin Adnectins to compete with Type I and Type II receptors for binding to myostatin or BMP11, as a surrogate for myostatin, were also conducted using SPR on a Biacore T100 instrument, in two different experimental formats. In “SPR Format A”, sensor chip surfaces were prepared by immobilizing 100 ug/ml protein A (Pierce) in 10 mM acetate pH 4.5 to 4500 RU on a CM5 sensor chip (Biacore/GE Healthcare) using standard ethyl(dimethylaminopropyl) carbodiimide (EDC)/N-hydroxysuccinimide (NHS) chemistry, with ethanolamine blocking. […] The running buffer for immobilization and competition experiments was 10 mM HEPES, 150 mM NaCl, 3 mM EDTA, and 0.05% v/v Surfactant P20, pH 7.4, and surfaces were regenerated between cycles using two injections of 10 mM glycine pH 1.5 for 30 s at 30 μl/min.
# [8] = target: T2, human BMP-11 (GDF-11; R&D Systems); assay: SPR Format A; 100 nM BMP11 alone
# Method: as §2
# [9] = target: T2, human BMP-11 (GDF-11; R&D Systems); assay: cell-based or functional assay
# [10] = target: T3, human Activin A (R&D Systems) (human, UniProt P08476 311-426); assay: cell-based or functional assay
# T3 sequence (looked up): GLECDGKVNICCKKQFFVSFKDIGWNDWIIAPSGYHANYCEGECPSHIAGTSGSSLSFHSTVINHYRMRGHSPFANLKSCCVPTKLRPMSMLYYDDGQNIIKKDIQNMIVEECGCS
# [11] = target: T1, human myostatin (mature, recombinant; …); assay: cell-based or functional assay; remark: listed apart in the source
# [12] = target: T1, human myostatin (mature, recombinant; …); assay: cell-based or functional assay; remark: listed apart in the source
# [13] = target: T2, human BMP-11 (GDF-11; R&D Systems); assay: SPR format A, 25C
# Excerpt: (§3) Anti-human Fc antibody (Biacore/GE) was immobilized on a Biacore CM5 chip via NHS/EDC coupling according to the manufacturer's instructions. […] A concentration range of anti-myostatin Adnectin was applied across all flow cells in HBSP running buffer. Regeneration of the chip surface between cycles was accomplished with two 30 second pulses of 3M MgCl₂. Kinetic traces of reference-subtracted sensorgrams were fit to a 1:1 binding model using Biaevaluation software.
# [14] = target: T3, human Activin A (R&D Systems); assay: SPR format A, 25C
# Excerpt: as §3
# [15] = target: T1, human myostatin (mature, recombinant; …); assay: SPR format A, 25C
# Excerpt: as §3
# [16] = target: T2, human BMP-11 (GDF-11; R&D Systems); assay: cell-based or functional assay; remark: listed apart in the source
# [17] = target: T3, human Activin A (R&D Systems); assay: cell-based or functional assay; remark: listed apart in the source
# [18] = target: T1, human myostatin (mature, recombinant; …); assay: cell-based or functional assay; remark: listed apart in the source
# [19] = target: T3, human Activin A (R&D Systems); assay: cell-based or functional assay; remark: listed apart in the source
# [20] = target: T1, human myostatin (mature, recombinant; …); assay: competitive HTRF (1889E01/myostatin/ActRIIb-Fc sandwich)
# Excerpt: An HTRF assay was used to measure the binding affinities of anti-myostatin Adnectins to myostatin. […] The Eu-W 1024 labeled Streptavidin is used to bind biotinylated 1889E01. […] In the presence of a competitive Adnectin, the HTRF signal decreases.
binder,measurement,setting,value
B1,IC50,[1],5.1 nM
same,Myostatin ARE-luc IC50,[2],40 nM
same,fold increase in IC50 relative to the parental sequence (WT),[3],> 10 fold
same,"ARE-luciferase cell-based assay, IC50 relative to parent sequence",[4],> 10 fold
B2,IC50,[1],4 nM
same,Myostatin ARE-luc IC50,[2],> 100 nM
same,fold increase in IC50 relative to the parental sequence (WT),[3],> 10 fold
B3,IC50,[1],4.9 nM
same,Myostatin ARE-luc IC50,[2],32 nM
same,fold increase in IC50 relative to the parental sequence (WT),[3],> 10 fold
same,"ARE-luciferase cell-based assay, IC50 relative to parent sequence",[4],> 10 fold
B4,IC50,[1],11 nM
same,Myostatin ARE-luc IC50,[2],> 100 nM
same,fold increase in IC50 relative to the parental sequence (WT),[3],> 10 fold
B5,SPR binding response (normalized),[5],65%
same,SPR binding response (normalized),[6],100%
same,SPR binding response (normalized),[7],31%
same,SPR binding response (normalized),[8],100%
B6,ARE-luciferase IC50,[9],3.9 nM
same,ARE-luciferase IC50,[10],> 1000 nM
same,ARE-luciferase IC50,[11],0.11 nM
same,"pSmad2 IC50, 12-point",[12],0.2 nM
same,Kd,[13],1.99 nM
same,binding result,[14],no binding
same,Kd,[15],1.28 nM
B7,ARE-luciferase IC50,[9],1500 nM
same,ARE-luciferase IC50,[10],> 1500 nM
same,ARE-luciferase IC50,[11],205 nM
same,"pSmad2 IC50, 12-point",[12],59.1 nM
same,Kd,[13],697 nM
same,binding result,[14],no binding
same,Kd,[15],48.8 nM
B8,ARE-luciferase IC50,[9],46 nM
same,ARE-luciferase IC50,[10],> 2000 nM
same,ARE-luciferase IC50,[11],4.2 nM
same,"pSmad2 IC50, 12-point",[12],0.78 nM
same,Kd,[13],10.7 nM
same,binding result,[14],no binding
same,Kd,[15],1.47 nM
B9,Kd,[13],~300 nM
same,binding result,[14],no binding
same,Kd,[15],128 nM
same,ARE-luciferase IC50,[16],888 nM
same,ARE-luciferase IC50,[17],> 2000 nM
same,ARE-luciferase IC50,[18],19 nM
B10,SPR binding response (normalized),[5],30%
same,SPR binding response (normalized),[6],100%
same,SPR binding response (normalized),[7],2%
same,SPR binding response (normalized),[8],100%
B11,SPR binding response (normalized),[7],189%
same,SPR binding response (normalized),[8],100%
B12,SPR binding response (normalized),[5],92%
same,SPR binding response (normalized),[6],100%
B13,ARE-luciferase IC50,[19],110 nM
same,IC50,[20],0.28 nM
same,Kd,[13],8.8 nM
same,Kd,[15],4.18 nM
same,ARE-luciferase IC50,[16],0.15 nM
same,ARE-luciferase IC50,[18],0.08 nM
B14,ARE-luciferase IC50,[19],> 2000 nM
same,IC50,[20],0.54 nM
same,Kd,[13],3.3 nM
same,Kd,[15],6.04 nM
same,ARE-luciferase IC50,[16],1.1 nM
same,ARE-luciferase IC50,[18],0.27 nM
